From PMC8303780, “Mutational Analysis of Redβ Single Strand Annealing Protein: Roles of the 14 Lysine Residues in DNA Binding and Recombination In Vivo”

Legend:
Test in all cases: EMSA; strands added sequentially; Anisotropy: 50 mM Tris-HCl pH 7.5, 1 mM DTT, 0.1 mg/mL BSA, 10 nM FAM48, 23 °C (Kd per monomer); gel assay: 10 µM Redβ, 50 µM nt of each oligo, PBS, 37 °C, 1% agarose at 22 °C
Settings in all cases: protein: recombinant; tags: 6xHis removed by thrombin; residual N-terminal GSH; label: 5'-Cy3 and 5'-Cy5; complementary 50-mers; annealed by protein
[1] = biological target: T1, Redβ K132A (bacteriophage λ, UniProt P03698 1-261, K132A)
T1 sequence: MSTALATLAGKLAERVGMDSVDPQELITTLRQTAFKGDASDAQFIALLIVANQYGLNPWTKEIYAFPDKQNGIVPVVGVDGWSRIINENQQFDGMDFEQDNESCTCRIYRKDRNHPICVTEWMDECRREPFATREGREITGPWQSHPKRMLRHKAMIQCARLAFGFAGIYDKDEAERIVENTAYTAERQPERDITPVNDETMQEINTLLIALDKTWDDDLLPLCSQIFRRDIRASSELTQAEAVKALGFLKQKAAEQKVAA

[2] = biological target: T2, Redβ K61A (bacteriophage λ, UniProt P03698 1-261, K61A)
T2 sequence: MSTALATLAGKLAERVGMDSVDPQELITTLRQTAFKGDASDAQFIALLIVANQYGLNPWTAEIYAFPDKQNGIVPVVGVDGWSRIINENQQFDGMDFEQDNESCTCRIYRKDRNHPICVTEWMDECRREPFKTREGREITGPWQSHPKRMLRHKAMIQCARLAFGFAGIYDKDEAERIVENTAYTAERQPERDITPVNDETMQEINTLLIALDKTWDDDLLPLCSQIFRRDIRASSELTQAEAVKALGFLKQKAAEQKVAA

[3] = biological target: T3, Redβ K214A (bacteriophage λ, UniProt P03698 1-261, K214A)
T3 sequence: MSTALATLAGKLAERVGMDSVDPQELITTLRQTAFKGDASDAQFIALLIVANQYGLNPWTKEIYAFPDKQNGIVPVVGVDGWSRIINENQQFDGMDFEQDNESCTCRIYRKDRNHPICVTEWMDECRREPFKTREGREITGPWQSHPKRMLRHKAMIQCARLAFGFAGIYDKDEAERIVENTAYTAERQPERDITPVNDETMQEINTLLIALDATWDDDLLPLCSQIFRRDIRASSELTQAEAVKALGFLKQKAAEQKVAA

[4] = biological target: T4, Redβ K253A (bacteriophage λ, UniProt P03698 1-261, K253A)
T4 sequence: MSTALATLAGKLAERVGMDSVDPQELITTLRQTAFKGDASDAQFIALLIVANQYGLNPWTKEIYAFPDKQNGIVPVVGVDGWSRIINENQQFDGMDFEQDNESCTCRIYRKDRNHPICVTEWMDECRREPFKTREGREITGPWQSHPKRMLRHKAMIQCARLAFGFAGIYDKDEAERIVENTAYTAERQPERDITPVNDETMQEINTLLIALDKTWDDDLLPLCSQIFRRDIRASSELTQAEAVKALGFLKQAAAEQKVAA

[5] = biological target: T5, Redβ K251A (bacteriophage λ, UniProt P03698 1-261, K251A)
T5 sequence: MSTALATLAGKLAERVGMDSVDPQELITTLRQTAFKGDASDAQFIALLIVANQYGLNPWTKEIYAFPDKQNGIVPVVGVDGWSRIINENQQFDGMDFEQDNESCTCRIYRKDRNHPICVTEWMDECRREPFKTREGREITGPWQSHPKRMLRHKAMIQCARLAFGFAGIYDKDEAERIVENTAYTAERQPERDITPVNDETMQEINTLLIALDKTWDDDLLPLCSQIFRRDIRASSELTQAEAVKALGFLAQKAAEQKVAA

[6] = biological target: T6, Redβ K154A (bacteriophage λ, UniProt P03698 1-261, K154A)
T6 sequence: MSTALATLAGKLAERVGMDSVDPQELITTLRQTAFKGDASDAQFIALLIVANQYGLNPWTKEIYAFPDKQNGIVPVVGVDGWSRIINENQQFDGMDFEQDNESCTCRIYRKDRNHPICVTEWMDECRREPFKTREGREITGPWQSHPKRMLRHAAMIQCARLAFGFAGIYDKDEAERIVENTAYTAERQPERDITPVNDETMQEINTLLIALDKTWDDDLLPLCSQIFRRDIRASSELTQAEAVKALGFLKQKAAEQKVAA

B1: annealed duplex of Cy3 and Cy5 50-mers, strands added sequentially (dsDNA)
DNA 1: GCGGATGGCTTAGAGCAGAATCGCCCTGCATAGCTCGATTTTTGCGGATG
DNA 2: CCATCCGCAAAAATCGAGCTATGCAGGGCGATTCTGCTCTAAGCCATCCG
[1]
  binding result: no binding
[2]
  binding result: no binding
[3]
  binding result: binds
[4]
  binding result: binds
[5]
  binding result: binds
[6]
  binding result: no binding
